From patent US20080089862

Test system: engineered beta-galactosidase reporter protein with the NS3-cleavable NS5A/B site between residues 2

Substance	β-galactosidase units (ONPG hydrolysis, Miller units), pEB13-lacZ-NS5A/B + pMALc-NN-scNS3 [Miller units]	β-galactosidase units (ONPG hydrolysis, Miller units), pMGT14 [Miller units]	β-galactosidase units (ONPG hydrolysis, Miller units), pMGT15 [Miller units]
MBP-scNS3 (E. coli maltose binding protein fused to the NS4A peptide followed by the NS3 protease domain)	20	60	–
MBP-scNS3mut (inactive mutant S-1165-A NS3)	–	–	160
